From the supplement of paper PMC10567573

B1: TRIM29 (parent)
chain: FAEKGELRKSIFSESRKPTVSIME

Variants of: B1
Test: protein stability index of a GFP-peptide fusion (GPS, HEK-293T) (PSI 1-6); higher = more stable
Details: c terminus: a fixed tail appended
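Also: lentivirally expressed fusions sorted by FACS into six bins by GFP to DsRed ratio, PSI derived from sequencing read proportions per bin multiplied by bin number.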

| Variant | protein stability index |
| --- | --- |
| FAEKGELRKSPFSESRKPTVSIME [I11P] | 2.51 |
| FAEKGELRKSQFSESRKPTVSIME [I11Q] | 3.33 |
| FAEKGELRKSLFSESRKPTVSIME [I11L] | 1.9 |
| FAEKGELRKSRFSESRKPTVSIME [I11R] | 2.71 |
| FAEKGELRKSAFSESRKPTVSIME [I11A] | 2.05 |
| FAEKGELRKSCFSESRKPTVSIME [I11C] | 1.64 |
| FAEKGELRKSNFSESRKPTVSIME [I11N] | 3.35 |
| FAEKGELRKSYFSESRKPTVSIME [I11Y] | 1.7 |
| FAEKGELRKSWFSESRKPTVSIME [I11W] | 2.77 |
| FAEKGELRKSDFSESRKPTVSIME [I11D] | 3.69 |
| FAEKGELRKSFFSESRKPTVSIME [I11F] | 2.74 |
| FAEKGELRKSMFSESRKPTVSIME [I11M] | 1.53 |
| FAEKGELRKSTFSESRKPTVSIME [I11T] | 2.65 |
| FAEKGELRKSVFSESRKPTVSIME [I11V] | 1.86 |
| FAEKGELRKSSFSESRKPTVSIME [I11S] | 3.09 |
| FAEKGELRKSGFSESRKPTVSIME [I11G] | 3.92 |
| FAEKGELRKSEFSESRKPTVSIME [I11E] | 3.26 |
| FAEKGELRKSHFSESRKPTVSIME [I11H] | 2.97 |
| FAEKGELRKSKFSESRKPTVSIME [I11K] | 3.22 |
| FSEKGELRKSIFSESRKPTVSIME [A2S] | 2.53 |
| FVEKGELRKSIFSESRKPTVSIME [A2V] | 2.1 |
| FQEKGELRKSIFSESRKPTVSIME [A2Q] | 3.44 |
| FREKGELRKSIFSESRKPTVSIME [A2R] | 3.42 |
| FWEKGELRKSIFSESRKPTVSIME [A2W] | 2.74 |

| Variant | protein stability index |
| --- | --- |
| FTEKGELRKSIFSESRKPTVSIME [A2T] | 2.36 |
| FYEKGELRKSIFSESRKPTVSIME [A2Y] | 2.88 |
| FAEWGELRKSIFSESRKPTVSIME [K4W] | 3.24 |
| FAEIGELRKSIFSESRKPTVSIME [K4I] | 2.1 |
| FAETGELRKSIFSESRKPTVSIME [K4T] | 2.14 |
| FAEPGELRKSIFSESRKPTVSIME [K4P] | 1.8 |
| FAEGGELRKSIFSESRKPTVSIME [K4G] | 2.02 |
| FAEVGELRKSIFSESRKPTVSIME [K4V] | 2.38 |
| FAECGELRKSIFSESRKPTVSIME [K4C] | 2.24 |
| FAEFGELRKSIFSESRKPTVSIME [K4F] | 1.77 |
| FAEYGELRKSIFSESRKPTVSIME [K4Y] | 2.16 |
| FAELGELRKSIFSESRKPTVSIME [K4L] | 2.38 |
| FAEAGELRKSIFSESRKPTVSIME [K4A] | 1.87 |
| FAEMGELRKSIFSESRKPTVSIME [K4M] | 1.39 |
| FAEEGELRKSIFSESRKPTVSIME [K4E] | 2.33 |
| FAENGELRKSIFSESRKPTVSIME [K4N] | 2.53 |
| FAEDGELRKSIFSESRKPTVSIME [K4D] | 2.06 |
| FAEQGELRKSIFSESRKPTVSIME [K4Q] | 1.71 |
| FAEHGELRKSIFSESRKPTVSIME [K4H] | 1.75 |
| FAERGELRKSIFSESRKPTVSIME [K4R] | 2.08 |
| FAESGELRKSIFSESRKPTVSIME [K4S] | 1.8 |
| FAIKGELRKSIFSESRKPTVSIME [E3I] | 2.43 |
| FAQKGELRKSIFSESRKPTVSIME [E3Q] | 2.05 |
| FAHKGELRKSIFSESRKPTVSIME [E3H] | 1.66 |

| Variant | protein stability index |
| --- | --- |
| FALKGELRKSIFSESRKPTVSIME [E3L] | 1.04 |
| FARKGELRKSIFSESRKPTVSIME [E3R] | 2.27 |
| FAWKGELRKSIFSESRKPTVSIME [E3W] | 1.83 |
| FAGKGELRKSIFSESRKPTVSIME [E3G] | 2.95 |
| FAKKGELRKSIFSESRKPTVSIME [E3K] | 2.29 |
| FADKGELRKSIFSESRKPTVSIME [E3D] | 1.9 |
| FAMKGELRKSIFSESRKPTVSIME [E3M] | 2.09 |
| FATKGELRKSIFSESRKPTVSIME [E3T] | 2.59 |
| FASKGELRKSIFSESRKPTVSIME [E3S] | 3.11 |
| FAVKGELRKSIFSESRKPTVSIME [E3V] | 1.15 |
| FAPKGELRKSIFSESRKPTVSIME [E3P] | 2.79 |
| FAFKGELRKSIFSESRKPTVSIME [E3F] | 1.42 |
| FANKGELRKSIFSESRKPTVSIME [E3N] | 2.29 |
| FACKGELRKSIFSESRKPTVSIME [E3C] | 1.92 |
| FAAKGELRKSIFSESRKPTVSIME [E3A] | 3.08 |
| FAYKGELRKSIFSESRKPTVSIME [E3Y] | 1.88 |
| FAEKCELRKSIFSESRKPTVSIME [G5C] | 1.15 |
| FAEKMELRKSIFSESRKPTVSIME [G5M] | 1.72 |
| FAEKIELRKSIFSESRKPTVSIME [G5I] | 2.31 |
| FAEKTELRKSIFSESRKPTVSIME [G5T] | 1.64 |
| FAEKSELRKSIFSESRKPTVSIME [G5S] | 2.11 |
| FAEKNELRKSIFSESRKPTVSIME [G5N] | 1.93 |
| FAEKYELRKSIFSESRKPTVSIME [G5Y] | 2.53 |
| FAEKAELRKSIFSESRKPTVSIME [G5A] | 1.99 |

| Variant | protein stability index |
| --- | --- |
| FAEKVELRKSIFSESRKPTVSIME [G5V] | 1.66 |
| FAEKQELRKSIFSESRKPTVSIME [G5Q] | 2.02 |
| FAEKKELRKSIFSESRKPTVSIME [G5K] | 1.78 |
| FAEKPELRKSIFSESRKPTVSIME [G5P] | 2.46 |
| FAEKHELRKSIFSESRKPTVSIME [G5H] | 2.3 |
| FAEKDELRKSIFSESRKPTVSIME [G5D] | 1.8 |
| FAEKWELRKSIFSESRKPTVSIME [G5W] | 2.04 |
| FAEKEELRKSIFSESRKPTVSIME [G5E] | 1.69 |
| FAEKRELRKSIFSESRKPTVSIME [G5R] | 1.7 |
| FAEKLELRKSIFSESRKPTVSIME [G5L] | 2.37 |
| FAEKFELRKSIFSESRKPTVSIME [G5F] | 2.17 |
| FAEKGELRNSIFSESRKPTVSIME [K9N] | 1.87 |
| FAEKGELRPSIFSESRKPTVSIME [K9P] | 2.23 |
| FAEKGELRYSIFSESRKPTVSIME [K9Y] | 2.36 |
| FAEKGELRRSIFSESRKPTVSIME [K9R] | 2.62 |
| FAEKGELRFSIFSESRKPTVSIME [K9F] | 1.39 |
| FAEKGELRASIFSESRKPTVSIME [K9A] | 1.77 |
| FAEKGELRLSIFSESRKPTVSIME [K9L] | 3.5 |
| FAEKGELRCSIFSESRKPTVSIME [K9C] | 3.57 |
| FAEKGELRHSIFSESRKPTVSIME [K9H] | 2.16 |
| FAEKGELRISIFSESRKPTVSIME [K9I] | 3.48 |
| FAEKGELRTSIFSESRKPTVSIME [K9T] | 1.93 |
